Results from patent publication US20020123042.

How the values were obtained:
[1] = target: wild type huBUB3 (plasmid p291-2)
Chain of wild type huBUB3 (plasmid p291-2) (chain, as listed by the source): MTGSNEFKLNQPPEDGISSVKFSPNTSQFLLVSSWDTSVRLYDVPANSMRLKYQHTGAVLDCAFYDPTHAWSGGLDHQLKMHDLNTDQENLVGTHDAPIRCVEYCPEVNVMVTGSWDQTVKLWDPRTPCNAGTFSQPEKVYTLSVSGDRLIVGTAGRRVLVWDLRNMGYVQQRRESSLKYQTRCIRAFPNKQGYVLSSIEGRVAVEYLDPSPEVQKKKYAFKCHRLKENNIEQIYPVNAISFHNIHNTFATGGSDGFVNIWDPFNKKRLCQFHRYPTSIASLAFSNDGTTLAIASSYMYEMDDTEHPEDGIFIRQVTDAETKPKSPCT

Chain of PHAS-I (Strategene) (Q60876 2-117): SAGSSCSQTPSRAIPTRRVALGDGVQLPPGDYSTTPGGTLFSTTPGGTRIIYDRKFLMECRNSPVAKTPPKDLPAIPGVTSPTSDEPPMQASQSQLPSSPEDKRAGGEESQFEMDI

B1: wild-type huBUB1 (full-length, plasmid p385-1) (protein)
chain: MDTPENVLQMLEAHMQSYKGNDPLGEWERYIQWVEENFPENKEYLITLLEHLMKEFLDKKKYHNDPRFISYCLKFAEYNSDLHQFFEFLYNHGIGTLSSPLYIAWAGHLEAQGELQHASAVLQRGIQNQAEPREFLQQQYRLFQTRLTETHLPAQARTSEPLHNVQVLNQMITSKSNPGNNMACISKNQGSELSGVISSACDKESNMERRVITISKSEYSVHSSLASKVDVEQVVMYCKEKLIRGESEFSFEELRAQKYNQRRKHEQWVNEDRHYMKRKEANAFEEQLLKQKMDELHKKLHQVVETSHEDLPASQERSEVNPARMGPSVGSQQELRAPCLPVTYQQTPVNMEKNPREAPPVVPPLANAISAALVSPATSQSIAPPVPLKAQTVTDSMFAVASKDAGCVNKSTHEFKPQSGAEIKEGCETHKVANTSSFHTTPNTSLGMVQATPSKVQPSPTVHTKEALGFIMNMFQAPTLPDISDDKDEWQSLDQNEDAFEAQFQKNVRSSGAWGVNKIISSLSSAFHVFEDGNKENYGLPQPKNKPTGARTFGERSVSRLPSKPKEEVPHAEEFLDDSTVWGIRCNKTLAPSPKSPGDFTSAAQLASTPFHKLPVESVHILEDKENVVAKQCTQATLDSCEENMVVPSRDGKFSPIQEKSPKQALSSHMYSASLLRLSQPAAGGVLTCEAELGVEACRLTDTDAAIAEDPPDAIAGLQAEWMQMSSLGTVDAPNFIVGNPWDDKLIFKLLSGLSKPVSSYPNTFEWQCKLPAIKPKTEFQLGSKLVYVHHLLGEGAFAQVYEATQGDLNDAKNKQKFVLKVQKPANPWEFYIGTQLMERLKPSMQHMFMKFYSAHLFQNGSVLVGELYSYGTLLNAINLYKNTPEKVMPQGLVISFAMRMLYMIEQVHDCEIIHGDIKPDNFILGNGFLEQDDEDDLSAGLALIDLGQSIDMKLFPKGTIFTAKCETSGFQCVEMLSNKPWNYQIDYFGVAATVYCMLFGTYMKVKNEGGECKPEGLFRRLPHLDMWNEFFHVMLNIPDCHHLPSLDLLRQKLKKVFQQHYTNKIRALRNRLIVLLLECKRSRK
phosphorylation of an exogenous substrate (33P-ATP kinase reaction of immunopurified FLAG-BUB3/BUB1, SDS-PAGE, autoradiography) (PHAS-I (Strategene)): only PHAS-I demonstrated clear huBUB1-dependent activity as a kinase substrate

B2: full-length HA-epitope tagged huBUB1 (plasmid p396-1) (protein)
chain: GGGGGGMDTPENVLQMLEAHMQSYKGNDPLGEWERYIQWVEENFPENKEYLITLLEHLMKEFLDKKKYHNDPRFISYCLKFAEYNSDLHQFFEFLYNHGIGTLSSPLYIAWAGHLEAQGELQHASAVLQRGIQNQAEPREFLQQQYRLFQTRLTETHLPAQARTSEPLHNVQVLNQMITSKSNPGNNMACISKNQGSELSGVISSACDKESNMERRVITISKSEYSVHSSLASKVDVEQVVMYCKEKLIRGESEFSFEELRAQKYNQRRKHEQWVNEDRHYMKRKEANAFEEQLLKQKMDELHKKLHQVVETSHEDLPASQERSEVNPARMGPSVGSQQELRAPCLPVTYQQTPVNMEKNPREAPPVVPPLANAISAALVSPATSQSIAPPVPLKAQTVTDSMFAVASKDAGCVNKSTHEFKPQSGAEIKEGCETHKVANTSSFHTTPNTSLGMVQATPSKVQPSPTVHTKEALGFIMNMFQAPTLPDISDDKDEWQSLDQNEDAFEAQFQKNVRSSGAWGVNKIISSLSSAFHVFEDGNKENYGLPQPKNKPTGARTFGERSVSRLPSKPKEEVPHAEEFLDDSTVWGIRCNKTLAPSPKSPGDFTSAAQLASTPFHKLPVESVHILEDKENVVAKQCTQATLDSCEENMVVPSRDGKFSPIQEKSPKQALSSHMYSASLLRLSQPAAGGVLTCEAELGVEACRLTDTDAAIAEDPPDAIAGLQAEWMQMSSLGTVDAPNFIVGNPWDDKLIFKLLSGLSKPVSSYPNTFEWQCKLPAIKPKTEFQLGSKLVYVHHLLGEGAFAQVYEATQGDLNDAKNKQKFVLKVQKPANPWEFYIGTQLMERLKPSMQHMFMKFYSAHLFQNGSVLVGELYSYGTLLNAINLYKNTPEKVMPQGLVISFAMRMLYMIEQVHDCEIIHGDIKPDNFILGNGFLEQDDEDDLSAGLALIDLGQSIDMKLFPKGTIFTAKCETSGFQCVEMLSNKPWNYQIDYFGVAATVYCMLFGTYMKVKNEGGECKPEGLFRRLPHLDMWNEFFHVMLNIPDCHHLPSLDLLRQKLKKVFQQHYTNKIRALRNRLIVLLLECKRSRK
autophosphorylation of HA-huBUB1 [1]: Co-translation of huBUB3 may stimulate this autophosphorylation activity.
